Experimental findings from patent publication US20110150888A1 (Amgen, published 2011) are described below.

A word on the EC50 (read off the curve): it is the midpoint of the concentration-response curve. A high value points to lower potency in that assay. The Kd is the concentration at which binding is half-saturated. In general, EC50 refers to the concentration at which the effect is half-maximal.

The target in assay [1] is T1, human hepcidin (mature, 25 amino acids) (human, mono-biotinylated in the ELISAs and on the KinExA beads (site not stated); unlabelled in solution and on the BIAcore chip).
T1 construct: the form is named in each assay field; also called rhuHepc; rhHepc
T1 peptide: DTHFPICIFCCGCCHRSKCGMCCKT
Kind of assay: sandwich ELISA built from 1S1 and 23F11 (one curve for the pair of antibodies), hepcidin titrated; the axis gives hepcidin levels before a 50-fold pre-dilution. A general note: ELISA stands for enzyme-linked immunosorbent assay.

Assay [2] deals with T1, human hepcidin (mature, 25 amino acids). Nature of the assay: BIAcore, recombinant human hepcidin immobilised on a CM5 chip, 50 nM antibody bound at pH 7.4, dissociation buffers of pH 7.4, 6 and 5.5 (curves not labelled by pH). As to the method: Off-rate analysis of dissociation at different pHs was also performed. A slow off-rate is expected to predict increased binding interaction over a longer period of time, while a faster off-rate is expected to predict decreased binding interaction. For example, a faster off-rate at lower pH is expected to predict greater release of antigen at lower pH. Solution equilibrium binding analysis was performed using BIAcore to study the off-rates of antibodies 1S1, 1S3, 2.7, 18B11, 23F11 and 26F11 with recombinant human hepcidin (SEQ ID NO: 9).
Immobilization of recombinant human hepcidin (rhuHepc) to a BIAcore sensor chip surface was performed according to manufacturer's instructions at a flow rate 10 μL/min of running buffer (DPBS: Dulbecco's Phosphate Buffer Salinel X, no CaCl or MgCl, with 0.005% Biacore surfactant P-20). The carboxylated matrix of the sensor chip was first activated with a 60 μL injection of a mixture containing 0.2 M EDC(N-ethyl-N-(dimethylamine-propyl)carbodiimide in water, from BIAcore) and 0.05M NHS (N-hydroxysuccinimide in water, from Biacore). 55 μL of recombinant human hepcidin (1 μg/ml in 10 mM Na-acetate pH4.0) was injected to immobilize onto the sensor chip. The excess reactive groups of the sensor chip were deactivated with an injection of 60 μL of ethanolamine (1.0M, from Biacore).
After rhuHepc was immobilized on the CM5 chip with low density, 50 nM of antibodies 1S1, 1S3, 2.7, 18B11, 23F11 and 26F11 were injected over and bound the rhuHepc surface at pH 7.4. Dissociation buffers with pH 7.4, pH6 and pH 5.5 were run over the bound surface. The dissociation curves were obtained.
In general terms: Surface plasmon resonance follows binding to a sensor surface in real time, without labels.

For assay [3] the target is unchanged. Nature of the assay: KinExA solution equilibrium, human hepcidin-coated beads. The method, then: SA-Sepharose beads were pre-coated with biotinylated human hepcidin (SEQ ID NO: 9) and blocked with BSA according to manufacturer's instructions. Antibodies and hepcidin were diluted in PBS/0.1% BSA/0.05% NaN₃ buffer. Fixed concentrations of antibodies 15E1, 15E1 W52H, 15E1 A99H, 15E1 N521-1, 15E1 A107H and 18B11 were incubated with various concentrations of human hepcidin at room temperature for 8 hours before being run through the human hepcidin-coated beads. The amount of the bead-bound antibody was quantified by fluorescently (Cy5)-labeled goat anti-murine-IgG (H+L) antibody (Jackson Immuno Research, West Grove, Pa.). The binding signal is proportional to the concentration of free antibody at equilibrium. Dissociation equilibrium constant (KD) was obtained from nonlinear regression of the competition curves using a dual-curve one-site homogeneous binding model (KinExATM Pro software).
For orientation: In KinExA the mixture passes briefly over coated beads that capture the unbound partner.

The target is the same in assay [4]. Kind of assay: ELISA, mono-biotinylated human hepcidin on Neutravidin plate, pH 5.5. As to the method:
(§1) Differential pH binding of the antibodies listed above in Table 3 was then determined by ELISA. 50 μL of Neutravidin (Pierce) at 8 μg/mL in 1×PBS was coated upon a Nunc Maxisorp 384-well plate, and incubated at 37° C. for 1 hr. After blocking the wells with 0.1% BSA/PBS/0.05% Tween20 for 1 hour at room temperature, plates were washed six times with PBS/0.05% Tween20. 25 μL of mono-biotinylated hepcidin at 50 ng/mL in 0.1% BSA/PBS/0.05% Tween20 was added to the 384-well plate, and incubated at room temperature for 1 hour. The plates were next washed six times with PBS/0.05% Tween20. Starting hepcidin antibody concentrations were normalized to 1 μg/mL for pH 5.5 and 6.0 conditions and to 100 ng/mL for pH 7.4 conditions. The hepcidin antibodies were serially diluted 3-fold in PBS/1% NFDM pH 7.4 and 4-fold in PBS/1% NFDM pH 6.0 and 5.5. The dilutions and titrations were performed in polypropylene 96-well dilution plates, and then were transferred in duplicate to a Neutravidin-coated 384-well plate. The biotinylated hepcidin and antibodies were incubated for 2 hours at room temperature. The plate was next washed six times with PBS/0.05% Tween20. 25 μL it of goat anti-huIgG-horseradish peroxidase at a 1:7000 dilution in 0.1% BSA/PBS/0.05% Tween20 was next added to each well of the assay plate. The plate was finally washed six times in PBS/0.05% Tween20. Enhanced K-Blue 3,3′,5,5′-Tetramethylbenzidine (TMB) Substrate (Neogen) was added and the reaction stopped using 1 M H₃PO₄ after 10 minutes of incubation at room temperature. The absorption was measured at 450 nm on a plate reader. Binding data were analyzed by non-linear regression analysis (sigmoidal dose-response, variable slope) to generate EC₅₀ values using GraphPad Prism® software. […] Double combinations of these mutants were made.

Assay [5] has the same target. Nature of the assay: ELISA, mono-biotinylated human hepcidin on Neutravidin plate, pH 6.0. The method, then:
as §1

Assay [6] shares this target. Nature of the assay: ELISA, mono-biotinylated human hepcidin on Neutravidin plate, pH 7.4. As to the method:
as §1

For assay [7] the target is unchanged. Nature of the assay: ELISA, mono-biotinylated human hepcidin on Neutravidin plate, pH 6.0 against pH 7.4. As to the method: as §1

B1: antibody 23F11 (antibody, V domains shown)
VH: QVQLQQSGPGLVKPSQTLSLTCAISGDSVSSNSAAWNWIRQSPSRGLEWLGRTYYRSKWFNDYAVSVQSRITINPDTSKNQFSLQLNSVTPEDTAVYYCARGIVFSYAMDVWGQGTTVTVSS
VL: NFMLTQPHSVSESPGKTVTISCTRSSGSIASYYVQWYQQRPGSSPTTVIYEDSQRPSGVPDRFSGSIDSSSNSASLTISGLKTEDEADYYCQSYDSSNVVFGGGTKLTVL
notes: Human antibody
Turning to B1, the “EC50 (read off the curve)” value in assay [1] is ~100 ng/mL.

B2: antibody 1S1 (antibody, human IgG2, kappa, V domains shown)
VH: QVQLVQSGDEVKKPGASVKVSCKASGYTFIKYGISWVRQAPGQGLEWMGWIGAFNGNTDYARNLQARVTMTTDTSTSTAYMELRSLRSDDTAVYYCAREGWNDDYFSGLDVWGQGTTVTVSS
VL: EIVLTQSPGTLSLSPGERATLSCRASQSVSSNYLAWYQQKPGQAPRLLIYGASSRATGIPDRFSGSGSGTDFTLIISRLEPEDFVVYYCQQYGSSLTFGGGTKVEIKR
notes: Human antibody; also called Ab 1S1
With B2, the concentration for a half-maximal effect (EC50 (read off the curve)) in assay [1] was ~100 ng/mL.

B3: murine antibody 2.7 (antibody, V domains shown)
VH: QIQLVQSGPELKKPGETVKISCKASGYTFTTYGMSWVKQAPGKGLKWMGWINTYSGVPTYADDFKGRFAFSLETSASTAYLQINNLKNEDTATYFCGRDHYYGEVAYWGQGTLVTVSA
VL: DIVLTQSPASLAVSLGQRATISCRASESVDSYGNSFMHWYQQKPGQPPKLLIYRASNLESGIPARFSGSGSRTDFTLTINPVEADDVATYYCHQSNEEYTFGGGTKLEIK
notes: Murine monoclonal antibody; murine IgG1 was used as its isotypic control; also called Ab2.7; Ab 2.7
As for B3, the binding result in assay [2] was “binds”.

B4: antibody 15E1 (wild type) (antibody, V domains shown)
VH: QVQLVESGGGVVQPGRSLRLSCAASGFTFSSYGMHWVRQAPGKGLEWVAVIWYAESNKYYADSVKGRFTISRDNSKNTLYLQMNSLRAEDTAVYYCARAQEGIAPDAFDIWGQGTMVTVSS
VL: SYELTQPPSVSVSPGQTATITCSGDKLGERYACWYQQRPGQSPVLVIYQDSKRPSGIPERFSGSNSGNTATLTISGTQAMDEADYFCQAWYSSTNVLFGGGTKLTVL
notes: Human antibody
For B4, the Kd in assay [3] is 0.037 nM. The EC50 in assay [4], in assay [5] and in assay [6] was 2.3 ng/mL in each case.

B5: antibody 1S3 (antibody, human IgG2, lambda, V domains shown)
VH: QVQLVESGGGVVQPGRSLRLSCAASGFTFSSYGMHWVRQAPGKGLEWVAVIWYAESNKYYADSVKGRFTISRDNSKNTLYLQMNSLRAEDTAVYYCARAQEGIAPDAFDIWGQGTMVTVSS
VL: YELTQPPSVSVSPGQTATITCSGDKLGERYASWYQQRPGQSPVLVIYQDIKRPSGIPERFSGSNSGNTATLTISGTQAMDEADYFCQAWYSSTNVLFGGGTKLTVLG
notes: Human antibody
As to B5, the binding result in assay [2] is given as “binds”.

B6: antibody 26F11 (antibody, V domains shown)
VH: QVQLVESGGGVVQPGRSLRLSCAASGFTFSNYGMHWVRQAPGKGLEWVAVIWYVGSNKYYADSVKGRFTISRDNSKNTLYLQMNSLRAEDTAVYYCARAQEGMAPDAFDIWGQGTMVTVSS
VL: SYELTQPPSVSVSPGQTASITCSGDKMGERYACWYQQKPGQSPILVIYQDTKRPSGIPERFSGSNSGNTATLTISGTQAMDEADYYCQAWYSSTNVVFGGGTKLTVL
notes: Human antibody
As to B6, the binding result in assay [2] is recorded as “binds”.

B7: 15E1 N57H (antibody, V domains shown)
VH: QVQLVESGGGVVQPGRSLRLSCAASGFTFSSYGMHWVRQAPGKGLEWVAVIWYAESHKYYADSVKGRFTISRDNSKNTLYLQMNSLRAEDTAVYYCARAQEGIAPDAFDIWGQGTMVTVSS
VL: SYELTQPPSVSVSPGQTATITCSGDKLGERYACWYQQRPGQSPVLVIYQDSKRPSGIPERFSGSNSGNTATLTISGTQAMDEADYFCQAWYSSTNVLFGGGTKLTVL
notes: Histidine mutant of 15E1, transiently expressed in 293-6E cells; constant regions as in wild-type 15E1; also called N57H (heavy chain)
On to B7, for which, in assay [3], the dissociation constant Kd came to 3 nM. For the same molecule, the EC50 in assay [4] was determined as 3.2 ng/mL; in assay [5] it was 4 ng/mL; in assay [6], 1.8 ng/mL. Also, the “fold increase in EC50 as the pH was lowered to 6.0” value in assay [7] was ≥ 1.5 fold.

B8: 15E1 A99H (antibody, V domains shown)
VH: QVQLVESGGGVVQPGRSLRLSCAASGFTFSSYGMHWVRQAPGKGLEWVAVIWYAESNKYYADSVKGRFTISRDNSKNTLYLQMNSLRAEDTAVYYCARHQEGIAPDAFDIWGQGTMVTVSS
VL: SYELTQPPSVSVSPGQTATITCSGDKLGERYACWYQQRPGQSPVLVIYQDSKRPSGIPERFSGSNSGNTATLTISGTQAMDEADYFCQAWYSSTNVLFGGGTKLTVL
notes: Histidine mutant of 15E1, transiently expressed in 293-6E cells; constant regions as in wild-type 15E1; also called A99H (heavy chain)
Take B8: in assay [3], the Kd was > 10 nM. The EC50 in assay [4] was found to be 29.1 ng/mL; in assay [5] it was 10.7 ng/mL; in assay [6], 4.1 ng/mL. In addition, the “fold increase in EC50 as the pH was lowered to 6.0” value in assay [7] is ≥ 1.5 fold.

B9: 15E1 A107H (antibody, V domains shown)
VH: QVQLVESGGGVVQPGRSLRLSCAASGFTFSSYGMHWVRQAPGKGLEWVAVIWYAESNKYYADSVKGRFTISRDNSKNTLYLQMNSLRAEDTAVYYCARAQEGIAPDHFDIWGQGTMVTVSS
VL: SYELTQPPSVSVSPGQTATITCSGDKLGERYACWYQQRPGQSPVLVIYQDSKRPSGIPERFSGSNSGNTATLTISGTQAMDEADYFCQAWYSSTNVLFGGGTKLTVL
notes: Histidine mutant of 15E1, transiently expressed in 293-6E cells; constant regions as in wild-type 15E1; also called A107H (heavy chain)
As to B9, in assay [3], the Kd was found to be 0.031 nM. Also, the EC50 was determined as 3.7 ng/mL in assay [4], 3.6 ng/mL in assay [5] and 2 ng/mL in assay [6]. The “fold increase in EC50 as the pH was lowered to 6.0” value in assay [7] is ≥ 1.5 fold.
